Reference: article PMC4981022
Where two headings read alike, the source gives them in different places.

Experiments:
[1] = target: endogenous TRAPPC6A (TPC6A), human cells (human (endogenous in HEK293, BCC, SK-N-SH and other human cell lines)) (UniProt O75865); assay: western blotting (size of the bands); cytosol and nuclei of BCC cells, with or without UV irradiation; mitochondria of Jurkat T cells treated with PMA for 90 min
[2] = target: endogenous TRAPPC6A (TPC6A), human cells (human (endogenous in HEK293, BCC, SK-N-SH and other human cell lines)) (UniProt O75865); assay: as above; remark: listed apart in the source

stoichiometry N [1]: 3 | stoichiometry N [2]: 2
Substance: endogenous TRAPPC6A (TPC6A), human cells (from UniProt O75865 1-159) (natural protein)
